According to patent US6482607:

Biological target: SP-Dis-PyCter (Dis-PyCter carrying an amino terminal ER-translocation signal from D. discoideum PsA) (UniProt P02886)
Sequence (P02886 other isoform, or with tags, fused parts or gaps): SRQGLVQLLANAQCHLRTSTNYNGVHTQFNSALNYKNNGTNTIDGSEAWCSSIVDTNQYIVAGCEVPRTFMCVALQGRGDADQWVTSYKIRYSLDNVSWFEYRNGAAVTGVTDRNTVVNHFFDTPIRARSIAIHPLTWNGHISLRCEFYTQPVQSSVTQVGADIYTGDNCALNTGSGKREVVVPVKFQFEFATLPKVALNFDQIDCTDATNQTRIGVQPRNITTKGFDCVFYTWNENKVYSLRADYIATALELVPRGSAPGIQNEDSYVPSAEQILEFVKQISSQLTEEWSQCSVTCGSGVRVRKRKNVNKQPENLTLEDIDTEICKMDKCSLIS

**Q.** How did the “size of the recombinant protein on Western blot after incubation with increasing thrombin (units/ml)” value turn out when human thrombin was run?
**A.** the size of the recombinant protein decreased with increasing thrombin concentrations
